Test results published in patent publication US20210395381A1 (OSSIANIX, published 2021).

Experiments:
[1] = molecular target: T1, recombinant mouse TfR-1 (mouse, UniProt Q62351 89-763); assay: phage ELISA
T1 construct: Recombinant protein coated at 1 ug/ml in the phage ELISA; also called mTfR1; mouse transferrin receptor-1

[2] = molecular target: T2, recombinant human TfR-1 (human, UniProt P02786 89-760); assay: phage ELISA
T2 construct: Recombinant protein coated at 1 ug/ml in the phage ELISA; also called hTfR1; human transferrin receptor-1
T2 sequence (P02786 89-760 limits assumed): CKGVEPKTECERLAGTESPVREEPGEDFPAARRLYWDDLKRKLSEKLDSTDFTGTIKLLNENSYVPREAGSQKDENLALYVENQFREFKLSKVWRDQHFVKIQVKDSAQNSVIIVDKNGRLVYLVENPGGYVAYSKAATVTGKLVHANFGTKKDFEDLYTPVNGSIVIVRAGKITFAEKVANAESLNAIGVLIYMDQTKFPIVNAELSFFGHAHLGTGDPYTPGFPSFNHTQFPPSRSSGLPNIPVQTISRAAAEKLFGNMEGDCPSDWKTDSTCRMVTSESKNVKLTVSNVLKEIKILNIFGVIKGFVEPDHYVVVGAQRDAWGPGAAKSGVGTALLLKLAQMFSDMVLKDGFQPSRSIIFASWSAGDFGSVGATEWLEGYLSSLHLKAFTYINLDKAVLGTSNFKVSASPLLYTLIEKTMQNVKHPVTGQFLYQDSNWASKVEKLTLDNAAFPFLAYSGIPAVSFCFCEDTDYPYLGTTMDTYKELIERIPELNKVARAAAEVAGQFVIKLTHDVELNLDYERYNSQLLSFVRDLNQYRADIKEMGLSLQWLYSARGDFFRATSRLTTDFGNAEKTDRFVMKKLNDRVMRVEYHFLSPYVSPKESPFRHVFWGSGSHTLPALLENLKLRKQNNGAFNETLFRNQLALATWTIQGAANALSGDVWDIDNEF

T1 sequence (Q62351 89-763 limits assumed): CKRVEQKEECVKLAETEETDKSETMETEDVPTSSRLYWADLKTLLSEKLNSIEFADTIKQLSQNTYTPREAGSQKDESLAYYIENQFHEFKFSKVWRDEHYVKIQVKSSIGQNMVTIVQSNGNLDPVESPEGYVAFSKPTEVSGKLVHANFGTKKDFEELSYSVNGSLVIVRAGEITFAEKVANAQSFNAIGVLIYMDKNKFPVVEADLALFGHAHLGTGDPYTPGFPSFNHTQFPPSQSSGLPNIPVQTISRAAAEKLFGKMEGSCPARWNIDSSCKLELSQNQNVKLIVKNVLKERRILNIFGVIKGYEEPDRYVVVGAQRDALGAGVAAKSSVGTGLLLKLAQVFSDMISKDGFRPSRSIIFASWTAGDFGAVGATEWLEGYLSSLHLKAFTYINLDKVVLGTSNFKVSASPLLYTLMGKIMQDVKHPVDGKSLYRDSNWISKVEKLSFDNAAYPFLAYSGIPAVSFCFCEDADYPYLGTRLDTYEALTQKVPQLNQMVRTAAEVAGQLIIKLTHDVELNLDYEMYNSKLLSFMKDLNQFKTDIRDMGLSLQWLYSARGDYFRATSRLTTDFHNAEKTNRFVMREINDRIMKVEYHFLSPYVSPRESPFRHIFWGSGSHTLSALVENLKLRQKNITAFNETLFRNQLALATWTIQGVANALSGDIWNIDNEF

Row | Binder | A450 [1] [A450] | A450 [2] [A450]
1 | Clone 8.25 (VNAR, VNAR on phage; Clone 8 framework) VNAR: ARVDQTPQTITKETGESLTINCVLRDSNCALPSTYWYRKKSGSTNEESISKGGRYVETVNSGSKSFSLRINDLTVEDSGTYRCKVIAQLSSMELGCNYRKHDVYGDGTAVTVNA | 0.084 | 0.06
2 | Clone 8.47 (VNAR, VNAR on phage; Clone 8 framework) VNAR: ARVDQTPQTITKETGESLTINCVLRDSNCALPSTYWYRKKSGSTNEESISKGGRYVETVNSGSKSFSLRINDLTVEDSGTYRCKVQTTLSSILRGCNYRKHDVYGDGTAVTVNA | 0.067 | 0.072
3 | Clone 8.56 (VNAR, VNAR on phage; Clone 8 framework) VNAR: ARVDQTPQTITKETGESLTINCVLRDSNCALPSTYWYRKKSGSTNEESISKGGRYVETVNSGSKSFSLRINDLTVEDSGTYRCKVIAQLSSILRGCTFDKHDVYGDGTAVTVNA | 0.064 | 0.051
4 | Clone 8.52 (VNAR, VNAR on phage; Clone 8 framework) VNAR: ARVDQTPQTITKETGESLTINCVLRDSNCALPSTYWYRKKSGSTNEESISKGGRYVETVNSGSKSFSLRINDLTVEDSGTYRCKVIAQLSSILRGCDRWKHDVYGDGTAVTVNA | 0.065 | 0.049
5 | Clone 8.37 (VNAR, VNAR on phage; Clone 8 framework) VNAR: ARVDQTPQTITKETGESLTINCVLRDSNCALPSTYWYRKKSGSTNEESISKGGRYVETVNSGSKSFSLRINDLTVEDSGTYRCKVIAQLSSQRWGCNYRKHDVYGDGTAVTVNA | 0.071 | 0.069
6 | Clone 8.43 (VNAR, VNAR on phage; Clone 8 framework) VNAR: ARVDQTPQTITKETGESLTINCVLRDSNCALPSTYWYRKKSGSTNEESISKGGRYVETVNSGSKSFSLRINDLTVEDSGTYRCKVIAQLSSILKPCWYRKHDVYGDGTAVTVNA | 0.067 | 0.093
7 | Clone 8.27 (VNAR, VNAR on phage; Clone 8 framework) VNAR: ARVDQTPQTITKETGESLTINCVLRDSNCALPSTYWYRKKSGSTNEESISKGGRYVETVNSGSKSFSLRINDLTVEDSGTYRCKVQGMLSSILRGCNYRKHDVYGDGTAVTVNA | 0.08 | 0.079
8 | Clone 8.35 (VNAR, VNAR on phage; Clone 8 framework) VNAR: ARVDQTPQTITKETGESLTINCVLRDSNCALPSTYWYRKKSGSTNEESISKGGRYVETVNSGSKSFSLRINDLTVEDSGTYRCKVIAELFSILRGCNYRKHDVYGDGTAVTVNA | 0.071 | 0.078
9 | Clone 8.46 (VNAR, VNAR on phage; Clone 8 framework) VNAR: ARVDQTPQTITKETGESLTINCVLRDSNCALPSTYWYRKKSGSTNEESISKGGRYVETVNSGSKSFSLRINDLTVEDSGTYRCKVIAQLSSYVVGCNYRKHDVYGDGTAVTVNA | 0.067 | 0.056
10 | Clone 8.34 (VNAR, VNAR on phage; Clone 8 framework) VNAR: ARVDQTPQTITKETGESLTINCVLRDSNCALPSTYWYRKKSGSTNEESISKGGRYVETVNSGSKSFSLRINDLTVEDSGTYRCKVIAQLSSILRGCNYIAYDVYGDGTAVTVNA | 0.072 | 0.078
11 | Clone 8.53 (VNAR, VNAR on phage; Clone 8 framework) VNAR: ARVDQTPQTITKETGESLTINCVLRDSNCALPSTYWYRKKSGSTNEESISKGGRYVETVNSGSKSFSLRINDLTVEDSGTYRCKVIAQLSSILRGCNYAWLDVYGDGTAVTVNA | 0.065 | 0.051
12 | Clone 8.38 (VNAR, VNAR on phage; Clone 8 framework) VNAR: ARVDQTPQTITKETGESLTINCVLRDSNCALPSTYWYRKKSGSTNEESISKGGRYVETVNSGSKSFSLRINDLTVEDSGTYRCKVIAQLVLNLRGCNYRKHDVYGDGTAVTVNA | 0.071 | 0.075
13 | Clone 8.33 (VNAR, VNAR on phage; Clone 8 framework) VNAR: ARVDQTPQTITKETGESLTINCVLRDSNCALPSTYWYRKKSGSTNEESISKGGRYVETVNSGSKSFSLRINDLTVEDSGTYRCKVRDALSSILRGCNYRKHDVYGDGTAVTVNA | 0.073 | 0.09
14 | Clone 8.32 (VNAR, VNAR on phage; Clone 8 framework) VNAR: ARVDQTPQTITKETGESLTINCVLRDSNCALPSTYWYRKKSGSTNEESISKGGRYVETVNSGSKSFSLRINDLTVEDSGTYRCKVIAQLSSIWKGCKYRKHDVYGDGTAVTVNA | 0.074 | 0.065
15 | Clone 8.36 (VNAR, VNAR on phage; Clone 8 framework) VNAR: ARVDQTPQTITKETGESLTINCVLRDSNCALPSTYWYRKKSGSTNEESISKGGRYVETVNSGSKSFSLRINDLTVEDSGTYRCKVIAQLSSILRGCNYWRWDVYGDGTAVTVNA | 0.071 | 0.058
16 | Clone 8.28 (VNAR, VNAR on phage; Clone 8 framework) VNAR: ARVDQTPQTITKETGESLTINCVLRDSNCALPSTYWYRKKSGSTNEESISKGGRYVETVNSGSKSFSLRINDLTVEDSGTYRCKVAFILSSILRGCNYRKHDVYGDGTAVTVNA | 0.077 | 0.085

Row | Binder | A450 [1] [A450] | A450 [2] [A450]
17 | Clone 8.44 (VNAR, VNAR on phage; Clone 8 framework) VNAR: ARVDQTPQTITKETGESLTINCVLRDSNCALPSTYWYRKKSGSTNEESISKGGRYVETVNSGSKSFSLRINDLTVEDSGTYRCKVIAQLSSILRGCNYLSMDVYGDGTAVTVNA | 0.067 | 0.056
18 | Clone 8.55 (VNAR, VNAR on phage; Clone 8 framework) VNAR: ARVDQTPQTITKETGESLTINCVLRDSNCALPSTYWYRKKSGSTNEESISKGGRYVETVNSGSKSFSLRINDLTVEDSGTYRCKVIAQLSSILFWCAYRKHDVYGDGTAVTVNA | 0.064 | 0.055
19 | Clone 8.54 (VNAR, VNAR on phage; Clone 8 framework) VNAR: ARVDQTPQTITKETGESLTINCVLRDSNCALPSTYWYRKKSGSTNEESISKGGRYVETVNSGSKSFSLRINDLTVEDSGTYRCKVIASAVSILRGCNYRKHDVYGDGTAVTVNA | 0.065 | 0.072
20 | Clone 8.26 (VNAR, VNAR on phage; Clone 8 framework) VNAR: ARVDQTPQTITKETGESLTINCVLRDSNCALPSTYWYRKKSGSTNEESISKGGRYVETVNSGSKSFSLRINDLTVEDSGTYRCKVIASAFSILRGCNYRKHDVYGDGTAVTVNA | 0.082 | 0.087
21 | Clone 8.49 (VNAR, VNAR on phage; Clone 8 framework) VNAR: ARVDQTPQTITKETGESLTINCVLRDSNCALPSTYWYRKKSGSTNEESISKGGRYVETVNSGSKSFSLRINDLTVEDSGTYRCKVIAEMGSILRGCNYRKHDVYGDGTAVTVNA | 0.065 | 0.06
22 | Clone 8.41 (VNAR, VNAR on phage; Clone 8 framework) VNAR: ARVDQTPQTITKETGESLTINCVLRDSNCALPSTYWYRKKSGSTNEESISKGGRYVETVNSGSKSFSLRINDLTVEDSGTYRCKVIAPQKSILRGCNYHKIDVYGDGTAVTVNA | 0.068 | 0.072
23 | Clone 8.50 (VNAR, VNAR on phage; Clone 8 framework) VNAR: ARVDQTPQTITKETGESLTINCVLRDSNCALPSTYWYRKKSGSTNEESISKGGRYVETVNSGSKSFSLRINDLTVEDSGTYRCKVIANLSSILRGCNYRKHDVYGDGTAVTVNA | 0.065 | 0.057
24 | Clone 8.42 (VNAR, VNAR on phage; Clone 8 framework) VNAR: ARVDQTPQTITKETGESLTINCVLRDSNCALPSTYWYRKKSGSTNEESISKGGRYVETVNSGSKSFSLRINDLTVEDSGTYRCKVIAQLFIDLRGCNYRKHDVYGDGTAVTVNA | 0.068 | 0.062
25 | Clone 8.45 (VNAR, VNAR on phage; Clone 8 framework) VNAR: ARVDQTPQTITKETGESLTINCVLRDSNCALPSTYWYRKKSGSTNEESISKGGRYVETVNSGSKSFSLRINDLTVEDSGTYRCKVIAQLSSILRGCNYNMEDVYGDGTAVTVNA | 0.067 | 0.06
26 | Clone 8.51 (VNAR, VNAR on phage; Clone 8 framework) VNAR: ARVDQTPQTITKETGESLTINCVLRDSNCALPSTYWYRKKSGSTNEESISKGGRYVETVNSGSKSFSLRINDLTVEDSGTYRCKVIAQLSSDHPGCNYRKHDVYGDGTAVTVNA | 0.065 | 0.058
27 | Clone 8.39 (VNAR, VNAR on phage; Clone 8 framework) VNAR: ARVDQTPQTITKETGESLTINCVLRDSNCALPSTYWYRKKSGSTNEESISKGGRYVETVNSGSKSFSLRINDLTVEDSGTYRCKVIAQLSSILDDCEYRKHDVYGDGTAVTVNA | 0.07 | 0.063
28 | Clone 8.30 (VNAR, VNAR on phage; Clone 8 framework) VNAR: ARVDQTPQTITKETGESLTINCVLRDSNCALPSTYWYRKKSGSTNEESISKGGRYVETVNSGSKSFSLRINDLTVEDSGTYRCKVSMLLSSILRGCNYRKHDVYGDGTAVTVNA | 0.077 | 0.114
29 | Clone 8.48 (VNAR, VNAR on phage; Clone 8 framework) VNAR: ARVDQTPQTITKETGESLTINCVLRDSNCALPSTYWYRKKSGSTNEESISKGGRYVETVNSGSKSFSLRINDLTVEDSGTYRCKVIAQLSSILRGCNYMMYDVYGDGTAVTVNA | 0.066 | 0.082
30 | Clone 8.40 (VNAR, VNAR on phage; Clone 8 framework) VNAR: ARVDQTPQTITKETGESLTINCVLRDSNCALPSTYWYRKKSGSTNEESISKGGRYVETVNSGSKSFSLRINDLTVEDSGTYRCKVIAQLYVGLRGCNYRKHDVYGDGTAVTVNA | 0.07 | 0.066
31 | Clone 8.29 (VNAR, VNAR on phage; Clone 8 framework) VNAR: ARVDQTPQTITKETGESLTINCVLRDSNCALPSTYWYRKKSGSTNEESISKGGRYVETVNSGSKSFSLRINDLTVEDSGTYRCKVIAQLSSILLTCEYRKHDVYGDGTAVTVNA | 0.077 | 0.059
32 | Clone 8.31 (VNAR, VNAR on phage; Clone 8 framework) VNAR: ARVDQTPQTITKETGESLTINCVLRDSNCALPSTYWYRKKSGSTNEESISKGGRYVETVNSGSKSFSLRINDLTVEDSGTYRCKVIAQLISILRGCNKNKHDVYGDGTAVTVNA | 0.075 | 0.077
